± gives the standard deviation of the averaged measurements.
Legend:
hTERT-HMEC = test: percentage of EdU-negative (G0-arrested) nuclei per well, 72 h; higher = more G0 arrest; settings: reference: sequence is the full UniProt precursor, the tested protein was the secreted form or ectodomain
MCF7 = test: as above; settings: reference: sequence is the full UniProt precursor, the tested protein was the secreted form or ectodomain
[1] = protein concentration 0.0225 µM
[2] = protein concentration 0.0165525 µM
[3] = protein concentration 0.165525 µM
[4] = protein concentration 0.03125 µM
[5] = protein concentration 0.3125 µM
[6] = protein concentration 0.0215 µM
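Further: secreted proteins added to cultured cells, EdU pulse at the end, nuclei found by Hoechst imaging, EdU status from nuclear versus surrounding ring intensity ratio, PBS as neutral control.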

Sequence	percentage of EdU-negative (hTERT-HMEC; [1]) [%]	percentage of EdU-negative (hTERT-HMEC; protein concentration 0.225 µM) [%]	percentage of EdU-negative (MCF7; [1]) [%]	percentage of EdU-negative (MCF7; protein concentration 0.225 µM) [%]	also measured
MTLTLSVLICLGLSVGPRTCVQAGTLPKPTLWAEPASVIARGKPVTLWCQGPLETEEYRLDKEGLPWARKRQNPLEPGAKAKFHIPSTVYDSAGRYRCYYETPAGWSEPSDPLELVATGFYAEPTLLALPSPVVASGGNVTLQCDTLDGLLTFVLVEEEQKLPRTLYSQKLPKGPSQALFPVGPVTPSCRWRFRCYYYYRKNPQVWSNPSDLLEILVPGVSRKPSLLIPQGSVVARGGSLTLQCRSDVGYDIFVLYKEGEHDLVQGSGQQPQAGLSQANFTLGPVSRSHGGQYRCYGAHNLSPRWSAPSDPLDILIAGLIPDIPALSVQPGPKVASGENVTLLCQSWHQIDTFFLTKEGAAHPPLCLKSKYQSYRHQAEFSMSPVTSAQGGTYRCYSAIRSYPYLLSSPSYPQELVVSGPSGDPSLSPTGSTPTPGPEDQPLTPTGLDPQSGLGRHLGVVTGVSVAFVLLLFLLLFLLLRHRHQSKHRTSAHFYRPAGAAGPEPKDQGLQKRASPVADIQEEILNAAVKDTQPKDGVEMDAPAAASEAPQDVTYAQLHSLTLRREATEPPPSQEREPPAEPSIYAPLAIH	5.56 ± 0.57	4.64 ± 0.082	26.64 ± 0.18	24.8 ± 1.6	–
MTMETQMSQNVCPRNLWLLQPLTVLLLLASADSQAAAPPKAVLKLEPPWINVLQEDSVTLTCQGARSPESDSIQWFHNGNLIPTHTQPSYRFKANNNDSGEYTCQTGQTSLSDPVHLTVLSEWLVLQTPHLEFQEGETIMLRCHSWKDKPLVKVTFFQNGKSQKFSHLDPTFSIPQANHSHSGDYHCTGNIGYTLFSSKPVTITVQVPSMGSSSPMGIIVAVVIATAVAAIVAAVVALIYCRKKRISANSTDPVKAAQFEPPGRQMIAIRKRQLEETNNDYETADGGYMTLNPRAPTDDDKNIYLTLPPNDHVNSNN	–	–	–	–	percentage of EdU-negative (hTERT-HMEC; [2]): 4.6 ± 0.053%; percentage of EdU-negative (hTERT-HMEC; [3]): 5.2 ± 0.11%; percentage of EdU-negative (MCF7; [2]): 26.5 ± 1.3%; percentage of EdU-negative (MCF7; [3]): 25.5 ± 0.26%
MTPALTALLCLGLSLGPRTRVQAGPFPKPTLWAEPGSVISWGSPVTIWCQGSLEAQEYQLDKEGSPEPLDRNNPLEPKNKARFSIPSMTQHHAGRYRCHYYSSAGWSEPSDPLELVMTGFYNKPTLSALPSPVVASGGNMTLRCGSQKGYHHFVLMKEGEHQLPRTLDSQQLHSGGFQALFPVGPVTPSHRWRFTCYYYYTNTPRVWSHPSDPLEILPSGVSRKPSLLTLQGPVLAPGQSLTLQCGSDVGYDRFVLYKEGERDFLQRPGQQPQAGLSQANFTLGPVSPSHGGQYRCYGAHNLSSEWSAPSDPLNILMAGQIYDTVSLSAQPGPTVASGENVTLLCQSRGYFDTFLLTKEGAAHPPLRLRSMYGAHKYQAEFPMSPVTSAHAGTYRCYGSYSSNPHLLSFPSEPLELMVSGHSGGSSLPPTGPPSTPASHAKDYTVENLIRMGMAGLVLVFLGILLFEAQHSQRNPQDAAGR [Q6PI73]	5.69 ± 0.33	5.12 ± 0.84	22.6 ± 0.32	24.9 ± 4.2	–
MTPHRLLPPLLLLLALLLAASPGGALARCPGCGQGVQAGCPGGCVEEEDGGSPAEGCAEAEGCLRREGQECGVYTPNCAPGLQCHPPKDDEAPLRALLLGRGRCLPARAPAVAEENPKESKPQAGTARPQDVNRRDQQRNPGTSTTPSQPNSAGVQDTEMGPCRRHLDSVLQQLQTEVYRGAQTLYVPNCDHRGFYRKRQCRSSQGQRRGPCWCVDRMGKSLPGSPDGNGSSSCPTGSSG	–	–	–	–	percentage of EdU-negative (hTERT-HMEC; [4]): 4.84 ± 0.44%; percentage of EdU-negative (hTERT-HMEC; [5]): 5.17 ± 1%; percentage of EdU-negative (MCF7; [4]): 25 ± 1.6%; percentage of EdU-negative (MCF7; [5]): 25.79 ± 0.037%
MTPILTVLICLGLSLGPRTHVQAGHLPKPTLWAEPGSVIIQGSPVTLRCQGSLQAEEYHLYRENKSASWVRRIQEPGKNGQFPIPSITWEHAGRYHCQYYSHNHSSEYSDPLELVVTGAYSKPTLSALPSPVVTSGGNVTLQCVSQVAFDGFILCKEGEDEHPQRLNSHSHARGWSWAIFSVGPVSPSRRWSYRCYAYDSNSPYVWSLPSDLLELLVPGVSKKPSLSVQPGPMVAPGESLTLQCVSDVGYDRFVLYKEGERDFLQRPGWQPQAGLSQANFTLGPVSPSHGGQYRCYSAHNLSSEWSAPSDPLDILITGQFYDRPSLSVQPVPTVAPGKNVTLLCQSRGQFHTFLLTKEGAGHPPLHLRSEHQAQQNQAEFRMGPVTSAHVGTYRCYSSLSSNPYLLSLPSDPLELVVSEAAETLSPSQNKTDSTTTSLGQHPQDYTVENLIRMGVAGLVLVVLGILLFEAQHSQRSLQDAAGR [Q8N149]	5.36 ± 0.5	4.88 ± 0.47	23.9 ± 0.99	26.3 ± 3.1	–
MTPILTVLICLGLSLGPRTHVQAGHLPKPTLWAEPGSVITQGSPVTLRCQGGQETQEYRLYREKKTALWITRIPQELVKKGQFPIPSITWEHAGRYRCYYGSDTAGRSESSDPLELVVTGAYIKPTLSAQPSPVVNSGGNVILQCDSQVAFDGFSLCKEGEDEHPQCLNSQPHARGSSRAIFSVGPVSPSRRWWYRCYAYDSNSPYEWSLPSDLLELLVLGVSKKPSLSVQPGPIVAPEETLTLQCGSDAGYNRFVLYKDGERDFLQLAGAQPQAGLSQANFTLGPVSRSYGGQYRCYGAHNLSSEWSAPSDPLDILIAGQFYDRVSLSVQPGPTVASGENVTLLCQSQGWMQTFLLTKEGAADDPWRLRSTYQSQKYQAEFPMGPVTSAHAGTYRCYGSQSSKPYLLTHPSDPLELVVSGPSGGPSSPTTGPTSTSGPEDQPLTPTGSDPQSGLGRHLGVVIGILVAVILLLLLLLLLFLILRHRRQGKHWTSTQRKADFQHPAGAVGPEPTDRGLQWRSSPAADAQEENLYAAVKHTQPEDGVEMDTRSPHDEDPQAVTYAEVKHSRPRREMASPPSPLSGEFLDTKDRQAEEDRQMDTEAAASEAPQDVTYAQLHSLTLRREATEPPPSQEGPSPAVPSIYATLAIH [A0A0B4J1W1]	–	–	–	–	percentage of EdU-negative (hTERT-HMEC; [6]): 4.85 ± 0.58%; percentage of EdU-negative (hTERT-HMEC; protein concentration 0.215 µM): 5.72 ± 0.22%; percentage of EdU-negative (MCF7; [6]): 23.2 ± 2.5%; percentage of EdU-negative (MCF7; protein concentration 0.215 µM): 25.3 ± 0.95%

From the supplement of paper PMC11316812
